The labels stand for the following.
B3: Sea3 (natural protein, UniProt Q03897 1-1148, looked up)
chain: MCSSINEGPYNSPTFGKSLSLKVDGGFNAVSINPSGRDIVLASRQGLYIIDLDDPFTPPRWLHHITPWQVADVQWSPHPAKPYWIVSTSNQKAIIWNLAKSSSNAIEFVLHGHSRAITDINFNPQHPDVLATCSVDTYVHAWDMRSPHRPFYSTSSWRSAASQVKWNYKDPNVLASSHGNDIFVWDLRKGSTPLCSLKGHVSSVNSIDFNRFKYSEIMSSSNDGTVKFWDYSKSTTESKRTVTTNFPIWRGRYLPFGEGYCIMPMVGGNNAVYLINLCDDDDSEQNKKTKLQPIYAFKGHSDRVIDFLWRSRHTCDGDYDDREFQLVTWSKDCDLKLWPISDSIYGKVNFDRGKRLEEKLPDYDYCSYNKEPENRENVQKNEFRRLRENFVTTSGLKKNKTNHITWLSGIRMNSATSQEDLFNETKIQNLGEEVSAIGHKFPKVVFEKISVSTRELCLTLNGPWSEENPDDYIFLRISINFPLNYPNKGDPPKFTIEENSNLTMSKRQEILSNLATIGQKYTDSNLYCLEPCIRFVLGEKVSLEDIEEGQEPLLNFDIADHIDFEELSSLDSSYSDSQNPENLSSQSDIESYKEALVFPDTSNQGLDFGRNLALDTTPVPNGCGSCWTATGELFCFFANEKKPEKKQNAIIKLSQKEAGVEKHPFKIEPQVLYDKEVDSSVITAADELKARPKRYVDTLGLGGGTNGDSRTYFDDETSSDDSFDSVADDWDDILRNDIIVRTKIPILRGNFKAFSSVHSESGKTVESTKKNKNLVISKNFSSLLSDRKELALEYLFMDATPEGFARNNALVAEKFDLDEISHCWQILSDMLIDQSDYDPYTTIWNNHPMGIKWFIKEAIVYFERQQNLQMLAMLCCVILSARRKKIPARYYGQELENMEGTIVFNDNESQNTSFWKGSDAFSTRSRSSTVTPNFYGNHLRGKNIHGGDNSSIRSDDHHARLRTHNTLNGSSKFTEPAQKQGSRAISSSPFHSRMPDIKVELLHDDIIEAYEQEDLLHLEVSDIPKFQTYIYQYSKLLFRWGLPLERVKILKVSTDFRSSYSSQGIPPNNNKKSPYNGVLTHWIENNEFGEEKFLARNCNYCDLRVTRSSFICGNCQHVLHSSCARIWWEIGDECPSGCGCNCPEMFDA
notes: Sea3, S. cerevisiae, endogenous subunit of the SEAC; Sea3^SIP (Sea3^Nter) lies in the wing, Sea3^SAP (Sea3^Cter) in the core; Native protein of the purified complex; two copies in the SEAC; source: endogenous, yeast cells expressing Sea4-TAP; in lysate and co-purified with Sea4-TAP (IgG Dynabeads, TEV elution)

Assay in all cases: cryo-EM structure; endogenous SEAC purified from yeast via Sea4-TAP (IgG Dynabeads, TEV elution in 20 mM HEPES-NaOH pH 7.4, 300 mM NaCl, 2 mM DTT), on graphene-oxide-coated grids
Holding throughout (conditions): both partners purified

The target of assay [1] is B3.
In assay [2] the target is T1, Sea1 (S. cerevisiae (endogenous in yeast …, UniProt P47170 1-1584)).
T1 construct: Sea1 (Iml1), S. cerevisiae, endogenous subunit of the SEAC (SEACIT, wing); Native protein of the purified complex; two copies in the SEAC; also called Iml1; Sea1/Iml1; source: endogenous, yeast cells expressing Sea4-TAP; in lysate and co-purified with Sea4-TAP (IgG Dynabeads, TEV elution)

The target in assay [3] is T2, Sea2 (S. cerevisiae (endogenous in yeast …, UniProt Q08281 1-1341)).
T2 construct: Sea2, S. cerevisiae, endogenous subunit of the SEAC (SEACAT, core); Native protein of the purified complex; two copies in the SEAC; source: endogenous, yeast cells expressing Sea4-TAP; in lysate and co-purified with Sea4-TAP (IgG Dynabeads, TEV elution)
T2 sequence (looked up): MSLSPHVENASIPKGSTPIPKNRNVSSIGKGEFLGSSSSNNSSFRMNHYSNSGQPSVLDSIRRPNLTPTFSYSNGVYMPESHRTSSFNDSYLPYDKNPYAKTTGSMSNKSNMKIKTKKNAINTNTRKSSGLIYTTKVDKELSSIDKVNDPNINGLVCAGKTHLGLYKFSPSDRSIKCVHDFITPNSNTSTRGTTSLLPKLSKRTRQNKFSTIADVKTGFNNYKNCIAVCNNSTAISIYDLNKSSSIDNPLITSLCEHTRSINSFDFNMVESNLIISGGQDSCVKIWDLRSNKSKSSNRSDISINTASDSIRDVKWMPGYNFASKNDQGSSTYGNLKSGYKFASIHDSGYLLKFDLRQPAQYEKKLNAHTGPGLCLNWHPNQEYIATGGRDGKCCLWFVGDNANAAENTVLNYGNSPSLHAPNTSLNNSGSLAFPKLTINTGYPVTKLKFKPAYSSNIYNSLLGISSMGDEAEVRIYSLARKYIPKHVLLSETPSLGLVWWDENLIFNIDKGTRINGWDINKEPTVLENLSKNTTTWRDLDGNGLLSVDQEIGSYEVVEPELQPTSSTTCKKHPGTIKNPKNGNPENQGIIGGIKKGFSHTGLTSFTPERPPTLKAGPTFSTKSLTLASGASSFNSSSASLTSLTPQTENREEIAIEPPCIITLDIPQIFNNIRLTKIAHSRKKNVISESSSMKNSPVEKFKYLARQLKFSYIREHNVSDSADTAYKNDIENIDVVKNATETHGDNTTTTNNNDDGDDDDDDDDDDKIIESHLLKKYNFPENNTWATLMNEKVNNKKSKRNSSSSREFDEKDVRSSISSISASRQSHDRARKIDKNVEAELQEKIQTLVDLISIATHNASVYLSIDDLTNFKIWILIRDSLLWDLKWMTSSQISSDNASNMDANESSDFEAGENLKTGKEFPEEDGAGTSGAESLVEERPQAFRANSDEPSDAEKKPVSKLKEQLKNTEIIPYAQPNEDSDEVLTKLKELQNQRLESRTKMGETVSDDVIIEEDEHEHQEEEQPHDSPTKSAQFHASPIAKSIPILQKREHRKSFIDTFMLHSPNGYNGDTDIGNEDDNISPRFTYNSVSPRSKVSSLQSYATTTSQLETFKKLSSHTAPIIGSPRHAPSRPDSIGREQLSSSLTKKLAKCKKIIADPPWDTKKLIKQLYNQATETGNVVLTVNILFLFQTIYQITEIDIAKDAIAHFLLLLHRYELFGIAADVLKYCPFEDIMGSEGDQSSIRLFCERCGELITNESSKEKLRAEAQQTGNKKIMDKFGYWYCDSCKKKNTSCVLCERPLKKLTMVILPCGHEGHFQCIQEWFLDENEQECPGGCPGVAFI

T1 sequence (P47170 whole entry): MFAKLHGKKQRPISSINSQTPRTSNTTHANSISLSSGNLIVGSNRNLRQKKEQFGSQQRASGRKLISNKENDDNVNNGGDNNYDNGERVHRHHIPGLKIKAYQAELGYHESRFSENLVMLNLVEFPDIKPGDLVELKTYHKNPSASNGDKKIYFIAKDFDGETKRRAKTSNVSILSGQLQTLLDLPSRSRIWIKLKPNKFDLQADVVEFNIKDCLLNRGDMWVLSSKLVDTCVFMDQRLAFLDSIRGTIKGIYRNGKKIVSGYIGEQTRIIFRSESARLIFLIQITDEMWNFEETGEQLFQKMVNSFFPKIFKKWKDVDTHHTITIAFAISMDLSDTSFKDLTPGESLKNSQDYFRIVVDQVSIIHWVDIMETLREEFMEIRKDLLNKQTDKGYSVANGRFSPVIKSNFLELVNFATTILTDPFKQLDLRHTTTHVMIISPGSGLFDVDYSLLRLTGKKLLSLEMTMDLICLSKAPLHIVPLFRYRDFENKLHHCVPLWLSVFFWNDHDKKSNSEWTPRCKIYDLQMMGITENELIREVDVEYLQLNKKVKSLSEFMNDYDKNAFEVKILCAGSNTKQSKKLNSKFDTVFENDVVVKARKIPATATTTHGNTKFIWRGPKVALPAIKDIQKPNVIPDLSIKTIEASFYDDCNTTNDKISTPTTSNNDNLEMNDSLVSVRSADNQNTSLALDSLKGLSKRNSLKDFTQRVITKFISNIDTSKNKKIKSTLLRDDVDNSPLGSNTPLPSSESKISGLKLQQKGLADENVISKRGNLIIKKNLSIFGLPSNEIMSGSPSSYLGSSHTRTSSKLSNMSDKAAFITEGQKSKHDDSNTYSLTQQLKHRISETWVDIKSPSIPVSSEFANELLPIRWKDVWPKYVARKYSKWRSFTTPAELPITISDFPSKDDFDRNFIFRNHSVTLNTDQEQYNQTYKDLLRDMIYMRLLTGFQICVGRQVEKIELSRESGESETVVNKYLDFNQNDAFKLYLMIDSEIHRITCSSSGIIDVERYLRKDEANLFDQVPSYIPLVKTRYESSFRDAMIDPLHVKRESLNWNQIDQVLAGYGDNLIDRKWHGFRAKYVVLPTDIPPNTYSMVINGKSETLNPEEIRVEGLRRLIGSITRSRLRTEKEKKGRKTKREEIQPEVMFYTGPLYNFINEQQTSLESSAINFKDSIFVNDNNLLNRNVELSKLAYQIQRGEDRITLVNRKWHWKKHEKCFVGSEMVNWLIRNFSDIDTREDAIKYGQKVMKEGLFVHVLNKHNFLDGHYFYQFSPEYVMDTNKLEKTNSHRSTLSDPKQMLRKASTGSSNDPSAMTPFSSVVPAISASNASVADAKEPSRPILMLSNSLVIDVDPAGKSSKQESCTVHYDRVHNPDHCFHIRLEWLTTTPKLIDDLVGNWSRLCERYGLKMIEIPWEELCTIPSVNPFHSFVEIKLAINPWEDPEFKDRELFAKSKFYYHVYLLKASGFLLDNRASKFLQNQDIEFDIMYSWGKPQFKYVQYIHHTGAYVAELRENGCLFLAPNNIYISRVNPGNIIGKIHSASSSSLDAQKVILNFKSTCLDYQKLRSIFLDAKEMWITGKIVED

B1: Sec13 (natural protein, UniProt Q04491 1-297, looked up)
chain: MVVIANAHNELIHDAVLDYYGKRLATCSSDKTIKIFEVEGETHKLIDTLTGHEGPVWRVDWAHPKFGTILASCSYDGKVLIWKEENGRWSQIAVHAVHSASVNSVQWAPHEYGPLLLVASSDGKVSVVEFKENGTTSPIIIDAHAIGVNSASWAPATIEEDGEHNGTKESRKFVTGGADNLVKIWKYNSDAQTYVLESTLEGHSDWVRDVAWSPTVLLRSYLASVSQDRTCIIWTQDNEQGPWKKTLLKEEKFPDVLWRASWSLSGNVLALSGGDNKVTLWKENLEGKWEPAGEVHQ
notes: Sec13, S. cerevisiae, endogenous subunit of the SEAC (SEACAT, core); Native protein of the purified complex; two copies in the SEAC; source: endogenous, yeast cells expressing Sea4-TAP; in lysate and co-purified with Sea4-TAP (IgG Dynabeads, TEV elution)
For B1, in assay [1], the binding result is “binds”.

B2: Npr2 (natural protein, UniProt P39923 1-615, looked up)
chain: MLSYFQGFVPIHTIFYSVFHPTEGSKIKYEFPPNNLKNHGINFNTFKNYIIPKPILCHKLITFKYGTYRIVCYPVTINSPIYARNFFSFNFVFVFPYDCETSPYEPAITRLGKMFKVLEEQNQLLSKSERDPVFFDLKVLENSTTTPSTAGPSSTPNPSSNTTPTHPTSEKDTKDMRSSRYSDLIKDLGLPQSAFSIQDLLMRIFQDLNNYSECLIPIDEGNAVDIKIFPLLRPPTTCVSLEDVPLSSVNLKKIIDVNWDPTMMSIVPYIDGLNSIAKISKLSNSDPGLVIECIRHLIYYKCVTLSDIFQFSNIYAPSSLIRNFLTDPLMASDCQSYVTFPEVSKISNLPLNKSLGSGDQDSPSFSVRRKSKSSSIPSNPDSRTTSFSSTSRVSQNSSLNSSFSSIYKDWRQSQTSCSSSNIHVINNRNRFLPTRSCLFDLYRSLSQGQTLKTWYESKYMILKENNIDIRRFITFGLEKRIIYRCYSFPVMINAGSREPKEMTPIITKDLVNNDKLLEKRNHNHLLSATGSRNTAQSGNLKPERPSKVSFEMQRVSSLATGKSTMPKLSDEEEGILEESIRNAETFDKICVLLSKPKLEVESYLNELGEFKVINS
notes: Npr2, S. cerevisiae, endogenous subunit of the SEAC (SEACIT, wing); Native protein of the purified complex; two copies in the SEAC; source: endogenous, yeast cells expressing Sea4-TAP or Sea1-TAP; in lysate and co-purified with the tagged subunit (IgG Dynabeads, TEV elution)
On to B2, for which the binding result in assay [2] and in assay [1] was “binds” each time.

In the case of B3, the binding result in assay [2] and in assay [3] was “binds” in each case.

The record behind these values is publication PMC9646525, “Cryo-EM structure of the SEA complex” (Nature, 2022).
